Target: hMLH1-hMLH3 (human, UniProt P40692;Q9UHC1)
Assay: pull-down

hMLH1-hMLH3, sequence (P40692 whole entry, chain 1 of 2): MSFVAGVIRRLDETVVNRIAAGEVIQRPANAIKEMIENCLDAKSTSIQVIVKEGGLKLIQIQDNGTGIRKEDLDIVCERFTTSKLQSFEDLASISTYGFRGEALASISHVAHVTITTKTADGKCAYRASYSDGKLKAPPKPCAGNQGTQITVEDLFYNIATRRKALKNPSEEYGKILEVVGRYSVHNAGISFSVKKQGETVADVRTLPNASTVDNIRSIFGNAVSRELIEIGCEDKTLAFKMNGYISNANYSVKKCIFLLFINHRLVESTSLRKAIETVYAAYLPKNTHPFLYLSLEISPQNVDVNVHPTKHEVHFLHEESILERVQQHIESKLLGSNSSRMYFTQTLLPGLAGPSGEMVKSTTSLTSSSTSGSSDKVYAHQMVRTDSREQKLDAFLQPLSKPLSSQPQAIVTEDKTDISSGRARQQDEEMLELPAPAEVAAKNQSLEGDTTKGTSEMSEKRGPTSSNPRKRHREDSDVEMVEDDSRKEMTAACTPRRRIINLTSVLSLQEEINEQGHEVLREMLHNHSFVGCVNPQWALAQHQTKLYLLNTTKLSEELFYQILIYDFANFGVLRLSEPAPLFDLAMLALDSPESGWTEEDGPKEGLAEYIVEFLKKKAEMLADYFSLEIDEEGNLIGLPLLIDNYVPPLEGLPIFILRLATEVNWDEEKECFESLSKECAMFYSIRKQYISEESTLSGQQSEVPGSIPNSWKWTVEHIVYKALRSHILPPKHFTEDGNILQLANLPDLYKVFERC
hMLH1-hMLH3, sequence (Q9UHC1 whole entry, chain 2 of 2): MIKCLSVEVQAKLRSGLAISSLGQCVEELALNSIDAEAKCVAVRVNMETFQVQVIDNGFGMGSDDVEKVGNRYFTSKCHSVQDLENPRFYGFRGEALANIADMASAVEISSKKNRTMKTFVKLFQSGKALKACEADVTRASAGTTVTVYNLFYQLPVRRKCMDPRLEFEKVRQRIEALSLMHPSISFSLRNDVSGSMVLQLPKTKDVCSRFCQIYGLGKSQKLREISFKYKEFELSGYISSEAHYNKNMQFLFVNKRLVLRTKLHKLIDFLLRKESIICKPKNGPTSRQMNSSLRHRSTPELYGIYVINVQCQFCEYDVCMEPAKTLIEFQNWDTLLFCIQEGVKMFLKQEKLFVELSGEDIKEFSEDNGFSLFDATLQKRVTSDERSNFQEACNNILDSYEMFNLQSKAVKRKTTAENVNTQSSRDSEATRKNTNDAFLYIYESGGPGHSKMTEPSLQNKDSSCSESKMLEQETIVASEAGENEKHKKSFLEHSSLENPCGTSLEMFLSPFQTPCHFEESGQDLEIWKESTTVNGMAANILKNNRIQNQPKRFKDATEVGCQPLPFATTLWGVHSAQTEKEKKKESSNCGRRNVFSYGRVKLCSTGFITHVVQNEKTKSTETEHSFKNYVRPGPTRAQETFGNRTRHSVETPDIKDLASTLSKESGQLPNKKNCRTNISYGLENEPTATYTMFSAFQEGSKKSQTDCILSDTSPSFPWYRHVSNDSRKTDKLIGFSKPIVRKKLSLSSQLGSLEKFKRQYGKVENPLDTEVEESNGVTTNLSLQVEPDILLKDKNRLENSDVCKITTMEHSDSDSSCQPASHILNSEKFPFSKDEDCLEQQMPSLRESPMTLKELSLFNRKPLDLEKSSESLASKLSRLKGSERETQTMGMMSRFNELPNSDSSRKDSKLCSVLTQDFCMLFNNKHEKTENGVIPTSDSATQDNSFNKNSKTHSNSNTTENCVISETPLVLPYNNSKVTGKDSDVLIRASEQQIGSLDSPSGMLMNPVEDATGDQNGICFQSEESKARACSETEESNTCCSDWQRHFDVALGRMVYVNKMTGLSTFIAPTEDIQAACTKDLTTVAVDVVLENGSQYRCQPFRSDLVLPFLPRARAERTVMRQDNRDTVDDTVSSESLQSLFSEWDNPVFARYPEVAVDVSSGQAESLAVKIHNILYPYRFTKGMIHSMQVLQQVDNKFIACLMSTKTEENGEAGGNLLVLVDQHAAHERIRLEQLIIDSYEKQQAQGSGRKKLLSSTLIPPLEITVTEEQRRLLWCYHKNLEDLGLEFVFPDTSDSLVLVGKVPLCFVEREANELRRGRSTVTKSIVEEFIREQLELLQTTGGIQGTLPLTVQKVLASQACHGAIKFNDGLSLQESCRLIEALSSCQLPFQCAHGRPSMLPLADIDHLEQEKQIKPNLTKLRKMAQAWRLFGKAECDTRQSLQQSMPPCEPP

binding result: binds
B1: hEXO1(D173A) (enzyme)
chain: MGIQGLLQFIKEASEPIHVRKYKGQVVAVDTYCWLHKGAIACAEKLAKGEPTDRYVGFCMKFVNMLLSHGIKPILVFDGCTLPSKKEVERSRRERRQANLLKGKQLLREGKVSEARECFTRSINITHAMAHKVIKAARSQGVDCLVAPYEADAQLAYLNKAGIVQAIITEDSALLAFGCKKVILKMDQFGNGLEIDQARLGMCRQLGDVFTEEKFRYMCILSGCDYLSSLRGIGLAKACKVLRLANNPDIVKVIKKIGHYLKMNITVPEDYINGFIRANNTFLYQLVFDPIKRKLIPLNAYEDDVDPETLSYAGQYVDDSIALQIALGNKDINTFEQIDDYNPDTAMPAHSRSHSWDDKTCQKSANVSSIWHRNYSPRPESGTVSDAPQLKENPSTVGVERVISTKGLNLPRKSSIVKRPRSAELSEDDLLSQYSLSFTKKTKKNSSEGNKSLSFSEVFVPDLVNGPTNKKSVSTPPRTRNKFATFLQRKNEESGAVVVPGTRSRFFCSSDSTDCVSNKVSIQPLDETAVTDKENNLHESEYGDQEGKRLVDTDVARNSSDDIPNNHIPGDHIPDKATVFTDEESYSFESSKFTRTISPPTLGTLRSCFSWSGGLGDFSRTPSPSPSTALQQFRRKSDSPTSLPENNMSDVSQLKSEESSDDESHPLREEACSSQSQESGEFSLQSSNASKLSQCSSKDSDSEESDCNIKLLDSQSDQTSKLRLSHFSKKDTPLRNKVPGLYKSSSADSLSTTKIKPLGPARASGLSKKPASIQKRKHHNAENKPGLQIKLNELWKNFGFKKDSEKLPPCKKPLSPVRDNIQLTPEAEEDIFNKPECGRVQRAIFQ
